This is an account of results in IntAct's records for PubMed 29039417.

To fix the notation:
B1: BBSome complex member BBS4 (Homo sapiens), Q96RK4 (parent)
chain: MAEERVATRTQFPVSTESQKPRQKKAPEFPILEKQNWLIHLHYIRKDYEACKAVIKEQLQETQGLCEYAIYVQALIFRLEGNIQESLELFQTCAVLSPQSADNLKQVARSLFLLGKHKAAIEVYNEAAKLNQKDWEISHNLGVCYIYLKQFNKAQDQLHNALNLNRHDLTYIMLGKIHLLEGDLDKAIEVYKKAVEFSPENTELLTTLGLLYLQLGIYQKAFEHLGNALTYDPTNYKAILAAGSMMQTHGDFDVALTKYRVVACAVPESPPLWNNIGMCFFGKKKYVAAISCLKRANYLAPFDWKILYNLGLVHLTMQQYASAFHFLSAAINFQPKMGELYMLLAVALTNLEDIENAKRAYAEAVHLDKCNPLVNLNYAVLLYNQGEKKNALAQYQEMEKKVSLLKDNSSLEFDSEMVEMAQKLGAALQVGEALVWTKPVKDPKSKHQTTSTSKPASFQQPLGSNQALGQAMSSAAAYRTLPSGAGGTSQFTKPPSLPLEPEPAVESSPTETSEQIREK
partner: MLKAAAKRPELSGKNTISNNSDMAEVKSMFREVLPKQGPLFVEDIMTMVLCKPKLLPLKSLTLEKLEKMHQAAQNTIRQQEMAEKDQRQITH

In the assay the parent is B1. The conditions noted are these: with bbip1_human BBIP1, A8MTZ0.
In the case of G484K, the “effect of a mutation on the interaction” value is listed as “with no effect”. On to Q490K, for which the “effect of a mutation on the interaction” value is “with no effect”.

For the variant Q490E, the “effect of a mutation on the interaction” value is reported as “with no effect”.

As to Q490A, the “effect of a mutation on the interaction” value is “with no effect”. In the case of G463E it was “with no effect”. In the case of G463A it was “with no effect”; in that of G463K, “with no effect”. On to L434K, for which the “effect of a mutation on the interaction” value is recorded as “with no effect”.

Regarding L434A, the “effect of a mutation on the interaction” value is given as “with no effect”.

In the case of L434E, the “effect of a mutation on the interaction” value was “with no effect”. In the case of Y478K it was “with no effect”; in that of Y478A, “with no effect”. For Y478E, the “effect of a mutation on the interaction” value is listed as “with no effect”.

Take P455A: the “effect of a mutation on the interaction” value is listed as “with no effect”. Consider P455K, for which the “effect of a mutation on the interaction” value is “with no effect”. To P455E belongs “with no effect”. Take P439K: the “effect of a mutation on the interaction” value is given as “with no effect”.

Regarding P439E, the “effect of a mutation on the interaction” value is reported as “with no effect”. For P439A, the “effect of a mutation on the interaction” value is reported as “with no effect”.

Turning to L468K, the “effect of a mutation on the interaction” value is on record as “with no effect”. Consider L468A, for which the “effect of a mutation on the interaction” value was “with no effect”.

For L468E, the “effect of a mutation on the interaction” value is listed as “with no effect”. In the case of K438E it was “with no effect”; in that of K438A, “with no effect”; in that of F458E, “with no effect”.

On to F458A, for which the “effect of a mutation on the interaction” value is reported as “with no effect”. As for F458K, the “effect of a mutation on the interaction” value is reported as “with no effect”. In the case of P498K it was “with no effect”.

In the case of P498E, the “effect of a mutation on the interaction” value was “with no effect”. In the case of P498A it was “with no effect”; in that of T437K, “with no effect”.

As to T437A, the “effect of a mutation on the interaction” value was “with no effect”.

Take T437E: the “effect of a mutation on the interaction” value was “with no effect”. To K493E belongs “with no effect”; to K493A, “with no effect”.

For the variant P495A, the “effect of a mutation on the interaction” value is “with no effect”. In the case of P495E, the “effect of a mutation on the interaction” value is reported as “with no effect”. In the case of P495K it was “with no effect”; in that of S445K, “with no effect”; in that of S445A, “with no effect”. Take S445E: the “effect of a mutation on the interaction” value is listed as “with no effect”.

Take K444A: the “effect of a mutation on the interaction” value is on record as “with no effect”.

Consider K444E, for which the “effect of a mutation on the interaction” value is on record as “with no effect”. In the case of E432K it was “with no effect”; in that of S453K, “with no effect”; in that of S453A, “with no effect”.

With S453E, the “effect of a mutation on the interaction” value is given as “with no effect”. In the case of A433K it was “with no effect”; in that of A433E, “with no effect”.

With A467E, the “effect of a mutation on the interaction” value was “with no effect”. To A467K belongs “with no effect”; to P482E, “with no effect”; to P482K, “with no effect”.

In the case of P482A, the “effect of a mutation on the interaction” value is “with no effect”. To S451A belongs “with no effect”; to S451E, “with no effect”; to S451K, “with no effect”.

Consider N465K, for which the “effect of a mutation on the interaction” value is reported as “with no effect”. In the case of N465E it was “with no effect”; in that of N465A, “with no effect”.

As for W436A, the “effect of a mutation on the interaction” value is on record as “with no effect”.

In the case of W436K, the “effect of a mutation on the interaction” value is given as “with no effect”. In the case of W436E it was “with no effect”. In the case of A456K it was “with no effect”; in that of A456E, “with no effect”; in that of T449A, “with no effect”. Turning to T449K, the “effect of a mutation on the interaction” value was “with no effect”. Regarding T449E, the “effect of a mutation on the interaction” value is recorded as “with no effect”.

With S473A, the “effect of a mutation on the interaction” value is “with no effect”. To S473E belongs “with no effect”; to S473K, “with no effect”. To T480A belongs “with no effect”. Consider T480K, for which the “effect of a mutation on the interaction” value is “with no effect”. To T480E belongs “with no effect”; to S483K, “with no effect”; to S483E, “with no effect”. In the case of S483A it was “with no effect”; in that of V440K, “with no effect”. To V440A belongs “with no effect”. With V440E, the “effect of a mutation on the interaction” value was “with no effect”. To L462A belongs “with no effect”; to L462E, “with no effect”. Turning to L462K, the “effect of a mutation on the interaction” value was “with no effect”. To K441A belongs “with no effect”; to K441E, “with no effect”.

On to H447A, for which the “effect of a mutation on the interaction” value is given as “with no effect”. For the variant H447K, the “effect of a mutation on the interaction” value is listed as “with no effect”.

As to H447E, the “effect of a mutation on the interaction” value is given as “with no effect”.

In the case of T450E, the “effect of a mutation on the interaction” value is “with no effect”. In the case of T450A it was “with no effect”.

On to T450K, for which the “effect of a mutation on the interaction” value is given as “with no effect”. To G469A belongs “with no effect”; to G469K, “with no effect”; to G469E, “with no effect”.
